Data as given in the supplement of paper PMC9112550, “Optimization of the antimicrobial peptide Bac7 by deep mutational scanning” (BMC Biology, 2022).

system: Escherichia coli TOP10; experiment: shrunken log2 fold change of peptide-encoding DNA abundance (4.5 h post-induction vs induction); higher = less antimicrobial activity (less host growth inhibition); details: time post-induction: 4.5 h; library: site-saturation at positions 5, 18, 19, 20
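Also: peptides expressed intracellularly from a pBAD plasmid library in pooled LB shake-flask culture, induced with 0.3% L-arabinose, DNA abundance read by NGS, three biological replicates, DESeq2 with apeglm shrinkage.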

Sequence | shrunken log2 fold change
RRIRYRPPRLPRPRPRPFCSPRP | -0.425
RRIRIRPPRLPRPRPRPSHRPRP | -0.276
RRIRLRPPRLPRPRPRPIDHPRP | -0.154
RRIRLRPPRLPRPRPRPRQFPRP | 0.196
RRIRDRPPRLPRPRPRPYWHPRP | -0.921
RRIRSRPPRLPRPRPRPNWHPRP | -0.137
RRIRFRPPRLPRPRPRPCQEPRP | 0.176
RRIRQRPPRLPRPRPRPAMKPRP | -0.204
RRIRRRPPRLPRPRPRPCKYPRP | -0.915
RRIRARPPRLPRPRPRPMEPPRP | 0.0999
RRIRSRPPRLPRPRPRPHEQPRP | 0.128
RRIRCRPPRLPRPRPRPHCNPRP | -0.395
RRIRCRPPRLPRPRPRPMSNPRP | -0.64
RRIRERPPRLPRPRPRPRDGPRP | 0.237
RRIRARPPRLPRPRPRPFLFPRP | 0.162
RRIRGRPPRLPRPRPRPGTPPRP | 0.919
RRIRSRPPRLPRPRPRPPVTPRP | -0.0798
RRIRERPPRLPRPRPRPHFIPRP | -0.573
RRIRSRPPRLPRPRPRPEELPRP | 0.176
RRIRFRPPRLPRPRPRPIKPPRP | -0.4
RRIRGRPPRLPRPRPRPGLQPRP | 0.236
RRIRMRPPRLPRPRPRPFTSPRP | -0.0967
RRIRGRPPRLPRPRPRPLQQPRP | 0.28
RRIRSRPPRLPRPRPRPHKWPRP | -0.296
RRIRSRPPRLPRPRPRPQNRPRP | -0.106

Sequence | shrunken log2 fold change
RRIRCRPPRLPRPRPRPEKVPRP | 0.0187
RRIRVRPPRLPRPRPRPCDKPRP | -0.323
RRIRKRPPRLPRPRPRPCQQPRP | -0.0287
RRIRKRPPRLPRPRPRPYWEPRP | 0.0616
RRIRSRPPRLPRPRPRPQLPPRP | 0.53
RRIRNRPPRLPRPRPRPTRTPRP | 0.211
RRIRARPPRLPRPRPRPWVKPRP | 0.0825
RRIRSRPPRLPRPRPRPMVWPRP | 0.0214
RRIRFRPPRLPRPRPRPPRPPRP | 0.905
RRIRKRPPRLPRPRPRPDNTPRP | -0.0368
RRIRTRPPRLPRPRPRPMWCPRP | -0.172
RRIRDRPPRLPRPRPRPAHFPRP | 0.358
RRIRERPPRLPRPRPRPHWVPRP | 0.172
RRIRKRPPRLPRPRPRPVSMPRP | 0.224
RRIRARPPRLPRPRPRPKQRPRP | 0.558
RRIRYRPPRLPRPRPRPEMTPRP | -0.0508
RRIRHRPPRLPRPRPRPCHNPRP | -0.261
RRIRMRPPRLPRPRPRPPACPRP | 1.22
RRIRYRPPRLPRPRPRPKIAPRP | -0.404
RRIRIRPPRLPRPRPRPHKAPRP | -0.0133
RRIRYRPPRLPRPRPRPNGSPRP | -0.289
RRIRCRPPRLPRPRPRPTSGPRP | 0.285
RRIRYRPPRLPRPRPRPHSNPRP | -0.0748
RRIRYRPPRLPRPRPRPLFSPRP | -0.673
RRIRVRPPRLPRPRPRPFHKPRP | -0.385

Sequence | shrunken log2 fold change
RRIRARPPRLPRPRPRPAIGPRP | 0.714
RRIRDRPPRLPRPRPRPRHKPRP | 0.227
RRIRTRPPRLPRPRPRPFGCPRP | -0.0582
RRIRKRPPRLPRPRPRPEDIPRP | -0.00208
RRIRSRPPRLPRPRPRPRMYPRP | -0.113
RRIRERPPRLPRPRPRPNPAPRP | 0.0424
RRIRVRPPRLPRPRPRPCCRPRP | 0.0482
RRIRDRPPRLPRPRPRPPWEPRP | 0.0453
RRIRFRPPRLPRPRPRPLAEPRP | -0.0472
RRIRYRPPRLPRPRPRPGCRPRP | -0.0618
RRIRRRPPRLPRPRPRPETGPRP | 0.304
RRIRCRPPRLPRPRPRPTNDPRP | -0.218
RRIRSRPPRLPRPRPRPSCHPRP | -0.245
RRIRWRPPRLPRPRPRPMHGPRP | -0.138
RRIRGRPPRLPRPRPRPVNWPRP | 0.302
RRIRKRPPRLPRPRPRPRMQPRP | 0.622
RRIRIRPPRLPRPRPRPGARPRP | 0.251
RRIRLRPPRLPRPRPRPNWHPRP | -0.0136
RRIRFRPPRLPRPRPRPAPVPRP | 0.323
RRIRDRPPRLPRPRPRPEGIPRP | -0.0215
RRIRMRPPRLPRPRPRPWYAPRP | -0.475
RRIRLRPPRLPRPRPRPHWPPRP | 0.00985
RRIRHRPPRLPRPRPRPNNLPRP | -0.596
RRIRPRPPRLPRPRPRPQGHPRP | 0.05
RRIRMRPPRLPRPRPRPEILPRP | 0.121
